{"source": "patent US20260265360A1", "about": "“USE OF ANTI-FAM19A5 ANTAGONISTS FOR TREATING HEARING DISORDERS” (NEURACLE SCIENCE CO., LTD., priority 2023, published 2026)", "molecules": {"B1": {"name": "1-30: anti-FAM19A5 antibody, de-immunized variant of 3-2; VH SEQ ID NO: 235, VL SEQ ID NO: 240 (antibody, V domains shown)", "VH": "AVTLDESGGGLQTPGGALRLSCKASGFDFESFNMFWVRQAPGKGLEYVSQISSSEEDENYAPAVKGRATISRDNGQSTLYLQMNSLRAEDTGTYYCAKSSYDCPYGHCSSGVDSAGEIDAWGHGTEVIVSS", "VL": "ALTQPSSVSANPGETVKITCSGGGSEEEQYYYGWYQQKPGSAPVTLIYQDEERPSDIPSRFSGSTSGSTATLTITGVQAGDEADYYCGSWDSEDEDHFGAGTTLTVL", "modifications": "Low-PI VH, 1-30 VH, 1-17 VH, 1-32 VH, 4-11 VH, 6-10 VH; 1-30 VL"}}, "key": {"[1]": {"test_system": "noise-induced hearing loss mouse model", "test": "Noise-induced hearing loss mouse model, first antibody dose one day prior to noise exposure", "type": "in vivo", "description": "FIGS. 6A, 6B, 6C, 6D, and 6E show the therapeutic effect of FAM19A5 antagonists on auditory brainstem response (ABR) threshold in a noise-induced hearing loss mouse model. FIG. 6A provides a schematic of the experimental design. As shown, anti-FAM19A5 antibody (1-30) or control human IgG antibody was administered to the mice intravenously once a week (30 mg/kg per dose) for a total of five administrations. The first dose of the antibodies was administered one day before noise exposure. For noise-induced hearing loss induction, the animals were subjected to temporary threshold shift (TTS) of 105 decibels for 30 minutes. ABR (i.e., hearing test) was measured both prior to the initial administration of the antibodies and then at various times after administration. FIGS. 6B, 6C, 6D, and 6E provide comparison of ABR threshold between mice administered with the control human IgG (circle), anti-FAM19A5 antibody (square), or before noise (triangle) at the following time points: (i) before TTS exposure, (ii) 1 day after TTS exposure, (iii) 2 weeks after TTS exposure, (iv) 4 weeks after TTS exposure, and […], respectively. ABR threshold was measured at a frequency ranging from 4 kHz to 64 kHz.\nFIGS. 7A, 7B, 7C, and 7D show the therapeutic effect of FAM19A5 antagonists on distortion product […] emission (DPOAE) threshold in a noise-induced hearing loss mouse model. The overall experimental design is the same as that described in FIG. 6A. DPOAE threshold data was measured after antibody administration and: (i) before TTS exposure (FIG. 7A), (ii) 1 day after TTS exposure (FIG. 7B), (iii) 2 weeks after TTS exposure (FIG. 7C), and (iv) 4 weeks after TTS exposure (FIG. 7D). DPOAE threshold was measured at a frequency ranging between about 4 kHz to about 32 kHz.\nFIGS. 8A and 8B show the effect of FAM19A5 antagonists on distortion product […] emission (DPOAE) amplitude in a noise-induced hearing loss mouse model. The overall experimental design is the same as that described in FIG. 6A. DPOAE amplitude data was measured after antibody administration at 2 weeks after TTS exposure. FIG. 8A provides a comparison of the average DPOAE amplitude value as a function of different noise level for the following groups: (i) before noise (triangle), (ii) control antibody treated (circle), and (iii) anti-FAM19A5 treated (square). FIG. 8B provides a spectral level profile for each of the groups.\nFIGS. 11A and 11B show the effect of FAM19A5 antagonists on ABR I/O function in a noise-induced hearing loss mouse model. The overall experimental design is the same as that described in FIG. 6A. FIG. 11A provides wave I amplitude before noise (left graph) and at 2 weeks after noise (right graph).\nFIG. 11B provides wave I amplitude at 4 weeks after noise. For each of FIGS. 11A and 11B, the following groups of animals are shown: (i) control antibody treated (circle) and (ii) anti-FAM19A5 antibody treated (square). For comparison purposes, wave I amplitude before noise exposure is also provided at the 2 weeks and 4 weeks timepoints (“BN”).\nFIGS. 12A and 12B provide immunohistochemistry (IHC) analysis of the therapeutic effects of anti-FAM19A5 antibody (1-30) and control human IgG antibody administration in the middle cochlear region 8 weeks after temporary threshold shift (TTS) (i.e., noise induction).\nTo assess whether the FAM19A5 antagonists described herein can treat hearing loss, a noise-induced hearing loss mouse model was used. Briefly, for hearing loss induction, the animals were exposed to a temporary threshold shift (TTS) of 105 decibels for 30 minutes. An anti-FAM19A5 antibody (1-30 antibody) or a control human IgG antibody was intravenously administered to C57BL/6 mice (8 weeks old) once weekly for 5 total administrations (30 mg/kg per dose). […] To assess the effect on hearing loss, ABR threshold, DPOAE threshold, and/or DPOAE amplitude were measured at various time points (see “hearing test” in FIG. 6A). […]"}, "[2]": {"test_system": "mouse primary spiral ganglion neurons", "test": "Reversal of FAM19A5-induced inhibition of neurite outgrowth", "type": "cell-based", "conditions": "10 μM FAM19A5 protein co-treated with 100 nM antibody, 3 DIV", "description": "Sprial ganglion neuron were cultured in culture media consisting of high-glucose (4.5 mg/mL) DMEM, 0.1 mg/ml penicillin, 0.1 mg/mL streptomycin, N2 supplement, and 10 µg/mL insulin and was designated here as “5K” because in this media, [K+]=5.4 mM. A depolarizing media, designated as “30K,” in which Na was replaced with equimolar K to raise [K] to 30 mM while maintaining osmolarity was also used.\nDissociated spiral ganglion cell cultures were prepared from postnatal day 4-5 (P4-5) cochleae and maintained using a procedure modified from the methods described by Bok et al., J Neurosci 23 (3): 777-87 (2003), which is incorporated herein by reference in its entirety. […]\nNeurite outgrowth was quantified by measuring the total length of neurites per neuron. Neurons were stained with NF200 at either 2 or 3 DIV, and neurite lengths were measured using the Fiji (Image J). Individual neurons were manually selected, and neurite lengths were determined using the Simple Neurite Tracer plugin.\nBriefly, mouse primary spiral ganglion neurons (cultured and processed as described in Example 11) were treated with a FAM19A5 protein (10 μM) alone or in combination with an anti-FAM19A5 antibody (1-30) (100 nM) at 0 DIV (day in vitro). […] Then, at 3 DIV, the neurons were stained for neurofilament protein (NF200) expression and the average neurite length quantified."}}}
{"molecule": "B1", "values": [{"measurement": "DPOAE amplitude vs control antibody", "setting": "[1]; 2 weeks after TTS exposure, about 18 kHz frequency", "result": "higher DPOAE amplitude"}, {"measurement": "number of ribbon bodies per cell in IHC and OHC vs hIgG", "setting": "[1]; 8 weeks after TTS", "result": "increased number of ribbon bodies per cell"}, {"measurement": "ABR threshold values vs values prior to TTS exposure", "setting": "[1]; all time points assessed after TTS, 30 mg/kg i.v. weekly x5, first dose one day before noise", "result": "comparable to corresponding values prior to the TTS exposure"}, {"measurement": "DPOAE threshold values vs control IgG antibody", "setting": "[1]; before and 1 day, 2 weeks, 4 weeks after TTS, 30 mg/kg i.v. weekly", "result": "no noticeable differences"}, {"measurement": "increase in ABR threshold after TTS exposure, vs control antibody", "setting": "[1]; day 1 post TTS (105 dB, 30 min), 30 mg/kg i.v. weekly x5, first dose one day before noise", "result": "much more dramatic in animals treated with the control antibody"}, {"measurement": "ABR wave I amplitude vs control antibody", "setting": "[1]; four weeks post noise exposure", "result": "noticeable differences were observed"}, {"measurement": "expression of CtBP2 (cochlear ribbon synapse marker) in the IHC vs control antibody", "setting": "[1]; middle cochlear region, 8 weeks after TTS", "result": "noticeable increase"}, {"measurement": "ABR wave I amplitude vs control antibody", "setting": "[1]; two weeks post noise exposure", "result": "noticeable differences were observed"}, {"measurement": "neurite growth in FAM19A5-treated neurons", "setting": "[2]", "result": "less reduction in neurite growth and comparable to the neurons from the control group"}]}
